Assay results reported in publication PMC3828182.

Legend:
[1] = biological target: FLAG-tagged HPV51 chimera 4 L2 (Ch4L2-FLAG) (human papillomavirus type 51, Ma strain | human papillomavirus type 51, Nu strain) (UniProt P26539)
[2] = biological target: FLAG-tagged HPV51 chimera 5 L2 (Ch5L2-FLAG) (human papillomavirus type 51, Ma strain | human papillomavirus type 51, Nu strain) (UniProt P26539)

transport protein particle complex subunit 8 (TRAPPC8) (from UniProt Q9Y2L5 1-1435) (natural protein)
percent of HeLa cells GFP-positive by flow cytometry after inoculation with HPV51 PsV containing the (untagged) Ch4L2 and a GFP-expression plasmid [1]: 4% | percent of HeLa cells GFP-positive by flow cytometry after inoculation with HPV51 PsV containing the (untagged) Ch5L2 and a GFP-expression plasmid [2]: 80%
